Here are results for three molecules from paper PMC10760138 (bioRxiv, 2024).

B1: HC19 recombinant IgG (antibody, V domains shown)
VH: QVQLKESGPGLVAPSQSLSITCTVSGFLLISNGVHWVRQPPGKGLEWLGVIWAGGNTNYNSALMSRVSISKDNSKSQVFLKMKSLQTDDTAMYYCARDFYDYDVFYYAMDYWGQGTSVTVSS
VL: QAVVTQESALTTSPGETVTLTCRSSTGAVTTSNYANWVQEKPDHLFTGLIGGTNNRAPGVPARFSGSLIGDKAALTITGAQTEDEAIYFCALWYSNHWVFGGGTKLTVL
B2: S8V1–157 recombinant human IgG1 (antibody, V domains shown)
VH: EVQLVQSGAEVKKPGASVKVSCKVSGYRLTALSMHWVRQAPGKGLEWMGGFDPEEDETIYAQNFQGRVTLTEDTSTDTVYMELSSLRSEDTGVYYCATLMGANPFDYWGQGTLIIVSG
VL: not shown
B3: S5V2–29 recombinant IgG (antibody, V domains shown)
VH: QVQLQESGPGLVKPSETLSLTCTVSGGSVSSNIYYWSWIRQTPGKGLEWLGYFYHSGSSNYNPSLKSRVTISGDMSKNQFSLKLKSVTAADTAIYYCARGGVENLMLVAVIQEMWYFDLWGRGTLVTVSG
VL: DIQMTQTPSSLSASVGDRVTITCRASQSIGASLNWYQQKPGEAPKFLIYAASNLQSGVPSRFSGSGSGTDFTLTISSLQPEDFATYYCQQQGTFGQGTKLEIK

This experiment deals with full-length, membrane-anchored A/Aichi/02/1968(H3N2)(X-31) HA (Influenza A virus …, UniProt P03437). In words: flow cytometry on cells. On the technique in general: In flow cytometry, cells or beads pass a laser one at a time.
Turning to B1, the binding result is on record as “binds”.
In the case of B2, the binding result was “binds”.
With B3, the binding result was “binds”.
